Here are results for ten molecules from patent publication US20240376225A1 (CHILDREN S MEDICAL CENTER, published 2024).

Like-named read-outs stand apart in the source and are kept apart here.

The target in one assay is insulin (UniProt P01308). The assay can be described thus: polyreactivity ELISA on coated insulin; third number of the cell.
For assay [1], the target named is T1, human CD21 protein (human, UniProt P20023 21-971, limits assumed).
T1 construct: the Biacore set-up is not described; also called huCD21; CR2
T1 sequence (looked up): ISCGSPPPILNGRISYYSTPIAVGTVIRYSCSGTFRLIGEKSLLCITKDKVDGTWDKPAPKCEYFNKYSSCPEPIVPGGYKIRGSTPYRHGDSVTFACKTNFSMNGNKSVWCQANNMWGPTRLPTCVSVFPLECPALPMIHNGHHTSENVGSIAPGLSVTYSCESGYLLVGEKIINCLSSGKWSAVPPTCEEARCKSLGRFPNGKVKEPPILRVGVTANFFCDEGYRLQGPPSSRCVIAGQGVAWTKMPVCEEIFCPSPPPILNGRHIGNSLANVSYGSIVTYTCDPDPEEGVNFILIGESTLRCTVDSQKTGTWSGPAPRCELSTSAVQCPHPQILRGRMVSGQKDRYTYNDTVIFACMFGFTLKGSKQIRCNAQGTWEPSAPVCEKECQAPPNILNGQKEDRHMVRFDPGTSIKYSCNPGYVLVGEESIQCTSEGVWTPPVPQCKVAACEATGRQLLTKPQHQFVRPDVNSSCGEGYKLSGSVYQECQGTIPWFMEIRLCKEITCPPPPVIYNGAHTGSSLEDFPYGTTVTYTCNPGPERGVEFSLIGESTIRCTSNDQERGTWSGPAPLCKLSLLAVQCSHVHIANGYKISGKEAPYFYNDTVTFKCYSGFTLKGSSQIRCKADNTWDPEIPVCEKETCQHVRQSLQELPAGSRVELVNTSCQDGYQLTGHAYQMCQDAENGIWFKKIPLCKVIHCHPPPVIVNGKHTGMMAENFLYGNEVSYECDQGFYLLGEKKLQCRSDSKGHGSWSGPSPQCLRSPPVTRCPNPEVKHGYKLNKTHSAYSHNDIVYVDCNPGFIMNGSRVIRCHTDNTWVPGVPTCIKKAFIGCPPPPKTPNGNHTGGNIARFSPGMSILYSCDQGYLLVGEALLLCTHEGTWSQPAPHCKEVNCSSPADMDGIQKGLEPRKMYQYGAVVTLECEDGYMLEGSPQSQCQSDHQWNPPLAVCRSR
Nature of the assay: SPR (Biacore).

The target in assay [2] is T1, human CD21 protein. Nature of the assay: affinity KD; method not restated (Biacore elsewhere).
For assay [3], the target named is cyno CD21 protein (cynomolgus monkey). Nature of the assay: SPR (Biacore).
Assay [4] has as its target T2, human CD21 on Raji B cells or primary B cells (human, UniProt P20023 21-1033).
T2 sequence (looked up): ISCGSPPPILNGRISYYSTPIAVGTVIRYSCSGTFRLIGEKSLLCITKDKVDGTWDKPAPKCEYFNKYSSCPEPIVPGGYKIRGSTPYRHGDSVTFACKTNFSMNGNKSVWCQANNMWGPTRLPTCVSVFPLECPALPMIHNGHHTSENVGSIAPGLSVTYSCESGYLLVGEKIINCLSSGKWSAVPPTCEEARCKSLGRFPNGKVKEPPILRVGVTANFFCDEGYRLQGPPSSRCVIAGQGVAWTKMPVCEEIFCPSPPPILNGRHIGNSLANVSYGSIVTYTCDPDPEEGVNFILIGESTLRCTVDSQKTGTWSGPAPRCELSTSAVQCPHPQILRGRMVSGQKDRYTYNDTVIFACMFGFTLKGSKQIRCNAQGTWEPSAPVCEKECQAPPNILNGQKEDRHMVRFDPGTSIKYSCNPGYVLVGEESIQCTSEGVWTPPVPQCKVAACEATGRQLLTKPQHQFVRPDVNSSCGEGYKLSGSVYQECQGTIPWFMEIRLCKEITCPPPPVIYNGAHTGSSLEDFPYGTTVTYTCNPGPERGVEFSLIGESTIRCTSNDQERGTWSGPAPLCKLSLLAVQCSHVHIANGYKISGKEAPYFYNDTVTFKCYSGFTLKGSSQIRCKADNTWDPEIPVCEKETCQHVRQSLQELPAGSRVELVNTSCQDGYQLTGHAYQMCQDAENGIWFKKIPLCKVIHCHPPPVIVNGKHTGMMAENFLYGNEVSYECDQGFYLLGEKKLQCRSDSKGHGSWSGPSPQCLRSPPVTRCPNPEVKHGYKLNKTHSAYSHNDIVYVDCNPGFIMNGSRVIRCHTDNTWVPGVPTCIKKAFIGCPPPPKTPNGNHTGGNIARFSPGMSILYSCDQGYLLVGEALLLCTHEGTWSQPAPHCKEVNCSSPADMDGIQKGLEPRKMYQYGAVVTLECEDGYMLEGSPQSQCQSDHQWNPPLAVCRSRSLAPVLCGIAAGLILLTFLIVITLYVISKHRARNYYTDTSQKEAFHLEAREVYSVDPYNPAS
Nature of the assay: cell-based or functional assay.

For assay [5], the target named is cyno CD21 protein (cynomolgus monkey). Nature of the assay: affinity KD; method not restated (Biacore elsewhere).
For assay [6], the target named is T2, human CD21 on Raji B cells or primary B …. The assay can be described thus: cell-based or functional assay. The source holds these as a separate data set.

Chain of insulin (P01308 25-54 limits assumed, chain 1 of 2): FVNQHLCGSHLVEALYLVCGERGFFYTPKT
Chain of insulin (P01308 90-110 limits assumed, chain 2 of 2): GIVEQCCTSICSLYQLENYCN

B1: Ab416 (antibody, human IgG1, kappa, V domains shown)
VH: QVQLVQSGAEVKKPGSSVKVSCKASGGTFSSYAISWVRQAPGQGLEWMGRIIPILGIANYAQKFQGRVTITADKSTSTAYMELSSLRSEDTAVYYCAREDDSSGYYQDWGQGTLVTVSS
VL: EIVMTQSPATLSVSPGERATLSCRAGQSINSYLAWYQQKPGQAPRLLIYDASTRATGIPARFSGSGSGTEFTLTISSLQSEDFAVYYCQQYEYWYTFGQGTKLEIKR
notes: IgG1
With B1, the insulin-binding score (ratio to buffer well) with insulin is 2. Also, the Kd with human CD21 protein [1] turned out to be 0.78 nM; with human CD21 protein [2], 0.78 nM; in assay [3], 9.13 nM; in assay [5], 9.73 nM. Also, the “pAKT inhibition, IC50, nM; Primary B cells” value in assay [4] and in assay [6] was 14.6 nM each time. For the same molecule, the “pAKT inhibition, IC50, nM; Raji B cells” value in assay [4] and in assay [6] was 8.59 nM in each case.

B2: Ab627 (antibody, human IgG1, kappa, V domains shown)
VH: QVQLVQSGAEVKKPGSSVKVSCKASGGTFSSYAISWVRQAPGQGLEWMGRIIPILGIANYAQKFQGRVTITADKSTSTAYMELSSLRSEDTAVYYCAREEDISGYYQDWGQGTLVTVSS
VL: EIVMTQSPATLSVSPGERATLSCRAGQKISSYLAWYQQKPGQAPRLLIYDASTRATGIPARFSGSGSGTEFTLTISSLQSEDFAVYYCQQYEYWYSFGQGTKLEIKR
notes: IgG1
On to B2, for which the equilibrium dissociation constant (Kd) with human CD21 protein [2] worked out at 0.02 nM; in assay [5], 0.15 nM.

B3: Ab419 (antibody, human IgG1, kappa, V domains shown)
VH: QVQLVQSGAEVKKPGSSVKVSCKASGGELQTLAISWVRQAPGQGLEWMGRIIPILGIANYAQKFQGRVTITADKSTSTAYMELSSLRSEDTAVYYCAREDDISGYYQDWGQGTLVTVSS
VL: EIVMTQSPATLSVSPGERATLSCRAGQSINSHLAWYQQKPGQAPRLLIYDASTRATGIPARFSGSGSGTEFTLTISSLQSEDFAVYYCQQYEYWYTFGQGTKLEIKR
notes: IgG1
Consider B3, for which, in the assay with insulin, the insulin-binding score (ratio to buffer well) was determined as 2. Moreover, the Kd in the assay with human CD21 protein [1] was 2.38 nM; in the assay with human CD21 protein [2] it was 2.38 nM; in assay [3] it was 0.21 nM; in assay [5] it was 0.21 nM. Further, the “pAKT inhibition, IC50, nM; Primary B cells” value in assay [4] and in assay [6] was 47.8 nM throughout. For the same molecule, the “pAKT inhibition, IC50, nM; Raji B cells” value in assay [4] and in assay [6] was 11.2 nM in each case.

B4: Ab628 (antibody, human IgG1, kappa, V domains shown)
VH: QVQLVQSGAEVKKPGSSVKVSCKASGGTFSSYAISWVRQAPGQGLEWMGRIIPILGIANYAQKFQGRVTITADKSTSTAYMELSSLRSEDTAVYYCAREEDISGYYQDWGQGTLVTVSS
VL: EIVMTQSPATLSVSPGERATLSCRAGQSISHYLAWYQQKPGQAPRLLIYDASTRATGIPARFSGSGSGTEFTLTISSLQSEDFAVYYCQQYEYWYSFGQGTKLEIKR
notes: IgG1
Take B4: the figures for the Kd (in the assay with human CD21 protein [2]; in assay [5]) were 0.01 nM and 0.11 nM, respectively. In addition, the “pAKT inhibition, IC50, nM; Primary B cells” value in assay [6] was 11.7 nM.

B5: Ab633 (antibody, human IgG1, kappa, V domains shown)
VH: QVQLVQSGAEVKKPGSSVKVSCKASGGTFSSYAISWVRQAPGQGLEWMGRIIPILGIANYAQKFQGRVTITADKSTSTAYMELSSLRSEDTAVYYCAREEDISGYYQDWGQGTLVTVSS
VL: EIVMTQSPATLSVSPGERATLSCRAGQSISRYLAWYQQKPGQAPRLLIYDASSRATGIPARFSGSGSGTEFTLTISSLQSEDFAVYYCQQYEYWYSFGQGTKLEIKR
notes: IgG1
Turning to B5, the figures for the Kd (with human CD21 protein [2]; in assay [5]) were 0.02 nM and 0.12 nM, respectively.

B6: Ab417 (antibody, human IgG1, kappa, V domains shown)
VH: QVQLVQSGAEVKKPGSSVKVSCKASGGELQDLAISWVRQAPGQGLEWMGRIIPILGIANYAQKFQGRVTITADKSTSTAYMELSSLRSEDTAVYYCAREDDISGYYQDWGQGTLVTVSS
VL: EIVMTQSPATLSVSPGERATLSCRAGQSINSYLAWYQQKPGQAPRLLIYDASTRATGIPARFSGSGSGTEFTLTISSLQSEDFAVYYCQQYEYWYTFGQGTKLEIKR
notes: IgG1
Consider B6, for which the insulin-binding score (ratio to buffer well) with insulin was 2. The dissociation constant (Kd) in the assay with human CD21 protein [1] worked out at 0.02 nM; with human CD21 protein [2], 0.02 nM; in assay [3] it was 0.08 nM; in assay [5] it was 0.08 nM. Further, the “pAKT inhibition, IC50, nM; Primary B cells” value in assay [4] and in assay [6] was 3.94 nM each time. For the same molecule, the “pAKT inhibition, IC50, nM; Raji B cells” value in assay [4] and in assay [6] was 8.91 nM throughout.

B7: Ab629 (antibody, human IgG1, kappa, V domains shown)
VH: QVQLVQSGAEVKKPGSSVKVSCKASGGTFSSYAISWVRQAPGQGLEWMGRIIPILGIANYAQKFQGRVTITADKSTSTAYMELSSLRSEDTAVYYCAREEDISGYYQDWGQGTLVTVSS
VL: EIVMTQSPATLSVSPGERATLSCRAGQSISRYLAWYQQKPGQAPRLLIYDASTRATGIPARFSGSGSGTEFTLTISSLQSEDFAVYYCQQYEYWYSFGQGTKLEIKR
notes: IgG1
With B7, the Kd in the assay with human CD21 protein [2] came to 0.02 nM; in assay [5] it was 0.1 nM.

B8: Ab632 (antibody, human IgG1, kappa, V domains shown)
VH: QVQLVQSGAEVKKPGSSVKVSCKASGGTFSSYAISWVRQAPGQGLEWMGRIIPILGIANYAQKFQGRVTITADKSTSTAYMELSSLRSEDTAVYYCAREEDISGYYQDWGQGTLVTVSS
VL: EIVMTQSPATLSVSPGERATLSCRAGQSISHYLAWYQQKPGQAPRLLIYDASSRATGIPARFSGSGSGTEFTLTISSLQSEDFAVYYCQQYEYWYSFGQGTKLEIKR
notes: IgG1
For B8, the values for the Kd (with human CD21 protein [2]; in assay [5]) were 0.01 nM and 0.08 nM, respectively. Further, the “pAKT inhibition, IC50, nM; Primary B cells” value in assay [6] was determined as 4.43 nM.

B9: Ab631 (antibody, human IgG1, kappa, V domains shown)
VH: QVQLVQSGAEVKKPGSSVKVSCKASGGTFSSYAISWVRQAPGQGLEWMGRIIPILGIANYAQKFQGRVTITADKSTSTAYMELSSLRSEDTAVYYCAREEDISGYYQDWGQGTLVTVSS
VL: EIVMTQSPATLSVSPGERATLSCRAGQKISSYLAWYQQKPGQAPRLLIYDASSRATGIPARFSGSGSGTEFTLTISSLQSEDFAVYYCQQYEYWYSFGQGTKLEIKR
notes: IgG1
Take B9: the figures for the Kd (with human CD21 protein [2]; in assay [5]) were 0.03 nM and 0.19 nM, respectively.

B10: Ab630 (antibody, human IgG1, kappa, V domains shown)
VH: QVQLVQSGAEVKKPGSSVKVSCKASGGTFSSYAISWVRQAPGQGLEWMGRIIPILGIANYAQKFQGRVTITADKSTSTAYMELSSLRSEDTAVYYCAREEDISGYYQDWGQGTLVTVSS
VL: DIVMTQSPATLSVSPGERATLSCRAGQSISSYLAWYQQKPGQAPRLLIYDASSRATGIPARFSGSGSGTEFTLTISSLQSEDFAVYYCQQYEYWYSFGQGTKLEIKR
notes: IgG1
B10: the Kd with human CD21 protein [2] worked out at 0.01 nM; in assay [5] it was 0.09 nM.
